Data taken from article PMC7327498, “Structural basis of semaphorin‐plexin cis interaction” (The EMBO Journal, 2020).

B1: Sema1b_(ecto)‐mutB (domain or fragment, Drosophila melanogaster, UniProt Q7KK54 37-659, looked up)
chain: DVKPDLQTKQDKVLAHFIGNSTDYFKILDHNDEFVLVGAKDVIYNVSLNGLKEIARLEWHSTDADRELCALKGKHEWDCHNYLRVYALRPNGEVLLCGTNSYKPRCRHYTPVEVSSEEAGSAGHAHAMRYEVSRDVEAQGLCPYSPAHNSTYAFADGHLYSATVADFSGGDPLIYRENLRTEQYDLKQLNQPDFVGAIERNGYVLFFFRELSMEVMNFGKAVYSRVARVCKNDRGGPYSHGKSWTSFLKARLNCSVPGEFPFYFDEIQAISPIVESGSKSLIYAVFTTSVNAIPGSAVCAFNVDDILAAFDGEAAAAAAAAAAAAAAAAAAVPKPRPGQCVEDSRTLTSIAVNFIKNHPLMEEAVPAVHGRPLLTKVNLHHRLTAIAVHPQVKSLSGAYYDVIYSGTDDGKVTKFINILSTHPNSTVDRLKTVVISEMQVLPLGTPIRELVISTSKNSLVVVSDGSLVSVPLHHCSHIVDCLGCLSLQDPICAWDLQTHECKNLATSQHKFGTKTYLQSLNSTKKAAALLCPHIPRDAPGAETVSFVTMAPPPTEEQKLLYSNVGSSQGNQPSLEQQPTGGDDFGLNKITLTSMDPDDIMPNLNDPQKSTASVDEIKYASTPS
notes: Semaphorin 1b (Sema1b), Drosophila melanogaster, ectodomain, residues 37–659, Exβ1‐β2 loop 350–367 replaced by alanines; synthetic clone (Invitrogen-GeneArt); also called Sema1b‐mutB; Sema1b‐mutant B; source: HEK 293T, transient transfection, purified (HisTrap, SEC)
B2: Sema1b_(ecto)‐mutA (domain or fragment, Drosophila melanogaster, UniProt Q7KK54 37-659, looked up)
chain: DVKPDLQTKQDKVLAHFIGNSTDYFKILDHNDEFVLVGAKDVIYNVSLNGLKEIARLEWHSTDADRELCALKGKHEWDCHNYLRVYALRPNGEVLLCGTNSYKPRCRHYTPVEVSSEEAGSAGHAHAMRYEVSRDVEAQGLCPYSPAHNSTYAFADGHLYSATVADESGGDPLIYRENLRTERYDLEQLNQPDFVGAIERNGYVLFFFRELSMEVMNFGKAVYSRVARVCKNDRGGPYSHGKSWTSFLKARLNCSVPGEFPFYFDEIQAISPIVESGSKSLIYAVFTTSVNAIPGSAVCAFNVDDILAAFDGEFKSQKDSQSHWLPVEREQVPKPRPGQCVEDSRTLTSIAVNFIKNHPLMEEAVPAVHGRPLLTKVNLHHRLTAIAVHPQVKSLSGAYYDVIYSGTDDGKVTKFINILSTHPNSTVDRLKTVVISEMQVLPLGTPIRELVISTSKNSLVVVSDGSLVSVPLHHCSHIVDCLGCLSLQDPICAWDLQTHECKNLATSQHKFGTKTYLQSLNSTKKAAALLCPHIPRDAPGAETVSFVTMAPPPTEEQKLLYSNVGSSQGNQPSLEQQPTGGDDFGLNKITLTSMDPDDIMPNLNDPQKSTASVDEIKYASTPS
notes: Semaphorin 1b (Sema1b), Drosophila melanogaster, ectodomain, residues 37–659, site A mutant; also called Sema1b‐mutA; Sema1b‐mutant A; source: HEK 293T, transient transfection, purified (HisTrap, SEC)
B3: Sema1b‐mutB‐mRuby2 (ligand, Drosophila melanogaster, UniProt Q7KK54 37-686, looked up)
chain: DVKPDLQTKQDKVLAHFIGNSTDYFKILDHNDEFVLVGAKDVIYNVSLNGLKEIARLEWHSTDADRELCALKGKHEWDCHNYLRVYALRPNGEVLLCGTNSYKPRCRHYTPVEVSSEEAGSAGHAHAMRYEVSRDVEAQGLCPYSPAHNSTYAFADGHLYSATVADFSGGDPLIYRENLRTEQYDLKQLNQPDFVGAIERNGYVLFFFRELSMEVMNFGKAVYSRVARVCKNDRGGPYSHGKSWTSFLKARLNCSVPGEFPFYFDEIQAISPIVESGSKSLIYAVFTTSVNAIPGSAVCAFNVDDILAAFDGEAAAAAAAAAAAAAAAAAAVPKPRPGQCVEDSRTLTSIAVNFIKNHPLMEEAVPAVHGRPLLTKVNLHHRLTAIAVHPQVKSLSGAYYDVIYSGTDDGKVTKFINILSTHPNSTVDRLKTVVISEMQVLPLGTPIRELVISTSKNSLVVVSDGSLVSVPLHHCSHIVDCLGCLSLQDPICAWDLQTHECKNLATSQHKFGTKTYLQSLNSTKKAAALLCPHIPRDAPGAETVSFVTMAPPPTEEQKLLYSNVGSSQGNQPSLEQQPTGGDDFGLNKITLTSMDPDDIMPNLNDPQKSTASVDEIKYASTPSFMLLTTIVFFTFLVGGIAGICCVKAKS
notes: Semaphorin 1b (Sema1b), Drosophila melanogaster, residues 37–686, loop 350–367 replaced by alanines; source: COS-7, transiently transfected, on live cells; not shown: mRuby2, C-terminal, kept
B4: Sema1b‐mRuby2 (ligand, Drosophila melanogaster, UniProt Q7KK54 37-686, looked up)
chain: DVKPDLQTKQDKVLAHFIGNSTDYFKILDHNDEFVLVGAKDVIYNVSLNGLKEIARLEWHSTDADRELCALKGKHEWDCHNYLRVYALRPNGEVLLCGTNSYKPRCRHYTPVEVSSEEAGSAGHAHAMRYEVSRDVEAQGLCPYSPAHNSTYAFADGHLYSATVADFSGGDPLIYRENLRTEQYDLKQLNQPDFVGAIERNGYVLFFFRELSMEVMNFGKAVYSRVARVCKNDRGGPYSHGKSWTSFLKARLNCSVPGEFPFYFDEIQAISPIVESGSKSLIYAVFTTSVNAIPGSAVCAFNVDDILAAFDGEFKSQKDSQSHWLPVEREQVPKPRPGQCVEDSRTLTSIAVNFIKNHPLMEEAVPAVHGRPLLTKVNLHHRLTAIAVHPQVKSLSGAYYDVIYSGTDDGKVTKFINILSTHPNSTVDRLKTVVISEMQVLPLGTPIRELVISTSKNSLVVVSDGSLVSVPLHHCSHIVDCLGCLSLQDPICAWDLQTHECKNLATSQHKFGTKTYLQSLNSTKKAAALLCPHIPRDAPGAETVSFVTMAPPPTEEQKLLYSNVGSSQGNQPSLEQQPTGGDDFGLNKITLTSMDPDDIMPNLNDPQKSTASVDEIKYASTPSFMLLTTIVFFTFLVGGIAGICCVKAKS
notes: Semaphorin 1b (Sema1b), Drosophila melanogaster, residues 37–686: ectodomain followed by a transmembrane segment; also called wild‐type Sema1b‐mRuby2; source: COS-7, transiently transfected, on live cells; not shown: mRuby2, C-terminal, kept
B5: Sema1b‐mutA‐mRuby2 (ligand, Drosophila melanogaster, UniProt Q7KK54 37-686, looked up)
chain: DVKPDLQTKQDKVLAHFIGNSTDYFKILDHNDEFVLVGAKDVIYNVSLNGLKEIARLEWHSTDADRELCALKGKHEWDCHNYLRVYALRPNGEVLLCGTNSYKPRCRHYTPVEVSSEEAGSAGHAHAMRYEVSRDVEAQGLCPYSPAHNSTYAFADGHLYSATVADESGGDPLIYRENLRTERYDLEQLNQPDFVGAIERNGYVLFFFRELSMEVMNFGKAVYSRVARVCKNDRGGPYSHGKSWTSFLKARLNCSVPGEFPFYFDEIQAISPIVESGSKSLIYAVFTTSVNAIPGSAVCAFNVDDILAAFDGEFKSQKDSQSHWLPVEREQVPKPRPGQCVEDSRTLTSIAVNFIKNHPLMEEAVPAVHGRPLLTKVNLHHRLTAIAVHPQVKSLSGAYYDVIYSGTDDGKVTKFINILSTHPNSTVDRLKTVVISEMQVLPLGTPIRELVISTSKNSLVVVSDGSLVSVPLHHCSHIVDCLGCLSLQDPICAWDLQTHECKNLATSQHKFGTKTYLQSLNSTKKAAALLCPHIPRDAPGAETVSFVTMAPPPTEEQKLLYSNVGSSQGNQPSLEQQPTGGDDFGLNKITLTSMDPDDIMPNLNDPQKSTASVDEIKYASTPSFMLLTTIVFFTFLVGGIAGICCVKAKS
notes: Semaphorin 1b (Sema1b), Drosophila melanogaster, residues 37–686, site A mutant; source: COS-7, transiently transfected, on live cells; not shown: mRuby2, C-terminal, kept

How the values were obtained:
[1] = molecular target: PlexA_(ecto) (Drosophila melanogaster) (UniProt Q9V491); assay: AUC; sedimentation velocity, 15 mM HEPES pH 7.4, 150 mM NaCl, 40,000 rpm; PlexA1‐4 at 33 μM, PlexA_(ecto) at 2.2 μM
PlexA1‐4‐mVenus = molecular target: T1, PlexA1‐4‐mVenus (Drosophila melanogaster, UniProt Q9V491 28-730); assay: MST; fluorescent PlexA1‐4‐mVenus kept constant, unlabelled Sema1b_(ecto) or mutants titrated; 28°C, 15 mM HEPES pH 7.4, 150 mM NaCl, 2 mM CaCl2, 0.05% Tween‐20; 80% MST power; conditions: both partners purified
T1 construct: Plexin A (PlexA), Drosophila melanogaster, domains 1-4, residues 28–730; monoVenus follows PlexA1-4 and is followed by the His6 tag; source: HEK 293T, transient transfection, purified (HisTrap, SEC); not shown: mVenus, C-terminal, kept
T1 sequence (looked up): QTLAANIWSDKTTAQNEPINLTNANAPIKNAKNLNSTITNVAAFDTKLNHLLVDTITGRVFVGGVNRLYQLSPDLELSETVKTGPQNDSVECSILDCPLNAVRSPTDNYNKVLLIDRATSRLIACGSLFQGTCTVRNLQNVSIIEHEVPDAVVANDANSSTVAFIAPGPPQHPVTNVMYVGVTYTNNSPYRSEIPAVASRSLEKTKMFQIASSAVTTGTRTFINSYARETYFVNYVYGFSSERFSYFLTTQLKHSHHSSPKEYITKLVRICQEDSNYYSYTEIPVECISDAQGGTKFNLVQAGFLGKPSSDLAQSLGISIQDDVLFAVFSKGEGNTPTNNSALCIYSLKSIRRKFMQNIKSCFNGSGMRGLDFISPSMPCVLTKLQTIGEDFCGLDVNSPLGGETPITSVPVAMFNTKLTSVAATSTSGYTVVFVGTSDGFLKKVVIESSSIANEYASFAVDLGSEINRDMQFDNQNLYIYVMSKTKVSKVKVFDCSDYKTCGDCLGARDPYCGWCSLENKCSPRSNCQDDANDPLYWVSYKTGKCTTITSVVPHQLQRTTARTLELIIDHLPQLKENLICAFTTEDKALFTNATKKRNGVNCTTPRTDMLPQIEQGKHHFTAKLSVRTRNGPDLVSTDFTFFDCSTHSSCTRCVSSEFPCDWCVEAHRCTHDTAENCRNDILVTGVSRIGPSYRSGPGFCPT

PlexA‐mClover = molecular target: T2, PlexA‐mClover (Drosophila melanogaster, UniProt Q9V491 28-1311); assay: FRET or BRET; FRET-FLIM in live COS-7 cells transiently co-transfected with PlexA‐mClover (donor) and semaphorin‐mRuby2 (acceptor), cis on one cell surface, 37°C; donor alone τav 2.72 ± 0.03 ns; conditions: partners not purified
T2 construct: Plexin A (PlexA), Drosophila melanogaster, residues 28–1,311: ectodomain followed by a transmembrane segment; not the purified PlexA‐mClover (residues 67–1,274) used as donor-only control in solution; also called FRET donor PlexA‐mClover; source: COS-7, transiently transfected, on live cells; not shown: mClover, C-terminal, kept
T2 sequence (looked up): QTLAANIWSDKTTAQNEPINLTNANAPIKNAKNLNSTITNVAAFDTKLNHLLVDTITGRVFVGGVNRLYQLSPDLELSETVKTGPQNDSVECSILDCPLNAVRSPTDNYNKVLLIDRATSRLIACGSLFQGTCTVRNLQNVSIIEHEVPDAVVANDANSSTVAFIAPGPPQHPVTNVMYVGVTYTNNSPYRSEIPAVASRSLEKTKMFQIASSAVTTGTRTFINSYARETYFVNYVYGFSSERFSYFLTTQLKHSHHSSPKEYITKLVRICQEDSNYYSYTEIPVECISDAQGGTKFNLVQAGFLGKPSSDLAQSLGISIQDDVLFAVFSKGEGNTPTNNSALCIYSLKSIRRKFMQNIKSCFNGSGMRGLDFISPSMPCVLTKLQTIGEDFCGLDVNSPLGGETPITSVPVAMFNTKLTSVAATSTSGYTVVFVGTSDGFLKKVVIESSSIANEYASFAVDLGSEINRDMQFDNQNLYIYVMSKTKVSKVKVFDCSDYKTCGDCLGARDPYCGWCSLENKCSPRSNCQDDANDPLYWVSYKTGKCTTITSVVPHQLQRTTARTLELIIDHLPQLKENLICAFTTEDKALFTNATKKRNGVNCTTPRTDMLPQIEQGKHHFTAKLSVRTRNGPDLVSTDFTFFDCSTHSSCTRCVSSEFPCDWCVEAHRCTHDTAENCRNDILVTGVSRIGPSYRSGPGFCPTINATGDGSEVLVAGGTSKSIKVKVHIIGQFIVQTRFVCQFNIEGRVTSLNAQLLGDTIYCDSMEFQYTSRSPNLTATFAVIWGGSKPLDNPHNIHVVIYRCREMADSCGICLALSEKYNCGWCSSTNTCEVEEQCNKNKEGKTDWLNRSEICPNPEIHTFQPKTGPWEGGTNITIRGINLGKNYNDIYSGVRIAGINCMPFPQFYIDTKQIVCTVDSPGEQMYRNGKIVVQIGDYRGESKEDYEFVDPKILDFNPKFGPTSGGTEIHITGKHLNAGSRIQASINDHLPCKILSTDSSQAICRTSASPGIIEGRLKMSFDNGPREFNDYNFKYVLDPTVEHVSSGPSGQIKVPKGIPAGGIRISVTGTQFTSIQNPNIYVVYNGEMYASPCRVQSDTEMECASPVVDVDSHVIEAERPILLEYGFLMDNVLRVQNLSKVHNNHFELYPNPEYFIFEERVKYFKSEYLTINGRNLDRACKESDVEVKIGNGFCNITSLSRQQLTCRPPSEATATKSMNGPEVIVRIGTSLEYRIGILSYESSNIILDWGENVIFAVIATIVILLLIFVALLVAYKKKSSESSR

Molecule | stoichiometry N [1] | binding result (PlexA1‐4‐mVenus) | average donor lifetime (τav) (PlexA‐mClover) | average fraction of the interacting donor (fD) (PlexA‐mClover)
PlexA_(ecto) (from UniProt Q9V491 28-1272) (domain or fragment) | < 4 | – | – | –
B1 | – | binds | – | –
B2 | – | binds | – | –
B3 | – | – | 2.53 ± 0.04 ns | 0.21 ± 0.07
B4 | – | – | 2.51 ± 0.06 ns | 0.26 ± 0.09
B5 | – | – | 2.43 ± 0.1 ns | 0.37 ± 0.15
